The nature of the data set: protein stability index of a GFP-peptide fusion (yeast GPS) (PSI 1-4); higher = more stable; sorted into four equal gates, so the index is relative within each strain. The method in brief:
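The protein stability index of a peptide was calculated by multiplying its read frequency in each gate by that gate's number and adding the products. The peptides were tiled 17-residue stretches of yeast proteins, fused downstream of GFP on a Cherry-expressing plasmid and carried in yeast as a pooled library. Mid-log cultures in leucine-free medium were sorted into four equal gates by GFP/Cherry ratio, and each gate's plasmids were PCR-amplified and Illumina-sequenced.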

± gives the uncertainty stated by the source.

On to VITALKEPPRDRKKDKN [RPL12A], for which the protein stability index by setting is: (doa10∆) 2.48 ± 0.08; (pdr5∆) 2.61 ± 0.12; (san1∆) 2.37 ± 0.1; (ubr1∆) 1.85 ± 0.063.
Take DVTHTLGMLDDNKMDSV [SMC4]: the protein stability index came out at 3.15 ± 0.095 (doa10∆), 3.03 ± 0.082 (pdr5∆), 3.21 ± 0.049 (san1∆) and 3.27 ± 0.097 (ubr1∆).
QNFAEFMTKLLEVANDL [IRR1]: the protein stability index is, setting by setting: (doa10∆) 2.06 ± 0.11; (pdr5∆) 2.29 ± 0.097; (san1∆) 3.13 ± 0.085; (ubr1∆) 2.65 ± 0.14.
With GCENPADVFRRCLVAVI [SRP72], the protein stability index (doa10∆) came out at 1.93 ± 0.055, the protein stability index (pdr5∆) came to 1.48 ± 0.048, the protein stability index (san1∆) was found to be 2.29 ± 0.088 and the protein stability index (ubr1∆) stood at 1.98 ± 0.077.
With EQFYTKDIIDPKLTSIF [RPN2], the protein stability index was 2.32 ± 0.11 (doa10∆), 2.92 ± 0.11 (pdr5∆), 2.36 ± 0.11 (san1∆) and 2.47 ± 0.09 (ubr1∆).
Consider NQTIKEAKDAIIELENI [YIL149C/MLP2], for which the protein stability index was 3.02 ± 0.061 (doa10∆), 3.2 ± 0.07 (pdr5∆), 3.06 ± 0.052 (san1∆) and 2.89 ± 0.065 (ubr1∆).
Take YLGTKVELPYGAHGYSG [PRE1]: the protein stability index by setting is: (doa10∆) 2.77 ± 0.18; (pdr5∆) 2.38 ± 0.11; (san1∆) 2.5 ± 0.1; (ubr1∆) 2.96 ± 0.086.
For the sequence LEKKGFSEVYEYNRLKV [LIN1], the protein stability index is, setting by setting: (doa10∆) 3.34 ± 0.16; (pdr5∆) 3.18 ± 0.25; (san1∆) 3.28 ± 0.1; (ubr1∆) 3.22 ± 0.12.
Turning to KSMLSKPETLSIGKNPF [SWI3], the protein stability index was 2.69 ± 0.053 (doa10∆), 2.91 ± 0.054 (pdr5∆), 2.6 ± 0.05 (san1∆) and 2.9 ± 0.037 (ubr1∆).
Take ATQMTLNTFHFAGVASK [RPO21]: the protein stability index is, setting by setting: (doa10∆) 1.89 ± 0.11; (pdr5∆) 1.9 ± 0.076; (san1∆) 2 ± 0.22; (ubr1∆) 2.32 ± 0.14.
For VIMALMLMSKIGDVDGL [POP5], the protein stability index (doa10∆) amounted to 1.49 ± 0.044, the protein stability index (pdr5∆) came to 2 ± 0.053, the protein stability index (san1∆) amounted to 1.84 ± 0.1 and the protein stability index (ubr1∆) turned out to be 1.97 ± 0.047.
In the case of LRDHALSLTAFTKNEEK [ITC1], the protein stability index came to 1.42 ± 0.042 (doa10∆), 1.76 ± 0.047 (pdr5∆), 1.38 ± 0.076 (san1∆) and 1.86 ± 0.046 (ubr1∆).
As for GRNIGHPIIQDKEGNGV [RPB3], the protein stability index was found to be 3.52 ± 0.17 (doa10∆), 3.24 ± 0.13 (pdr5∆), 3.04 ± 0.1 (san1∆) and 3.15 ± 0.13 (ubr1∆).
For the sequence SLQYIERQQDELENFLD [YJL041W/NSP1], the protein stability index amounted to 3.1 ± 0.1 (doa10∆), 3.04 ± 0.14 (pdr5∆), 3.43 ± 0.096 (san1∆) and 3.12 ± 0.054 (ubr1∆).
For AASFKKLYKTPIPIPAF [PRE10], the protein stability index runs as follows: (doa10∆) 2.54 ± 0.14; (pdr5∆) 3.15 ± 0.12; (san1∆) 2.75 ± 0.079; (ubr1∆) 3 ± 0.12.
On to IDDRDYVGNKRLELAGQ [RET1], for which the protein stability index (doa10∆) is 3.22 ± 0.15, the protein stability index (pdr5∆) was determined as 3.47 ± 0.11, the protein stability index (san1∆) was 3.05 ± 0.12 and the protein stability index (ubr1∆) was found to be 3.58 ± 0.13.
The corresponding values for FLKKLRNEQVTIELKNG [SMD1] are 2.49 ± 0.051, 2.24 ± 0.044, 2.42 ± 0.056 and 2.67 ± 0.039.
Take KIAERSLLLKNYLNDMH [SKP1]: the protein stability index runs as follows: (doa10∆) 2.55 ± 0.12; (pdr5∆) 2.54 ± 0.07; (san1∆) 1.81 ± 0.17; (ubr1∆) 1.78 ± 0.067.
The corresponding values for NLNDKFGIYILTQGING [MED1] are 1.54 ± 0.04, 1.47 ± 0.032, 1.6 ± 0.096 and 1.43 ± 0.031.
Regarding WEHTAAEDQILANFVAK [SRB8], the protein stability index by setting is: (pdr5∆) 2.5 ± 0.17; (ubr1∆) 2.57 ± 0.11.
Sequence VTSADSNLKISLVKYPE [SWI1] displayed a protein stability index (doa10∆) of 2.61 ± 0.067, a protein stability index (pdr5∆) of 2.72 ± 0.073, a protein stability index (san1∆) of 2.52 ± 0.085 and a protein stability index (ubr1∆) of 2.75 ± 0.05.
With KDPDVPLVLLQQIPLLC [POP3], the protein stability index (doa10∆) came out at 2.33 ± 0.055, the protein stability index (pdr5∆) was 2.57 ± 0.064, the protein stability index (san1∆) amounted to 2.4 ± 0.06 and the protein stability index (ubr1∆) came to 2.47 ± 0.052.
For the sequence QGIFKNSSNYFGELQFA [AAR2], the protein stability index (doa10∆) worked out at 2.36 ± 0.14, the protein stability index (pdr5∆) worked out at 2.6 ± 0.1, the protein stability index (san1∆) is 2.41 ± 0.12 and the protein stability index (ubr1∆) is 2.11 ± 0.12.
For the sequence QIEKKKICRGRMNTIIT [SIR4], the protein stability index runs as follows: (doa10∆) 3.52 ± 0.17; (pdr5∆) 3.43 ± 0.14; (san1∆) 3.52 ± 0.24; (ubr1∆) 2.63 ± 0.27.
The like results for DFTQEDELRKQELISKA [ISW2] were, in that order, 3.11 ± 0.12, 3.1 ± 0.076, 3.03 ± 0.083 and 3.09 ± 0.09.
In the case of KEENDEGLSAQIAFDLV [RPN2], the protein stability index turned out to be 3.4 ± 0.14 (doa10∆), 3.56 ± 0.098 (pdr5∆), 3.44 ± 0.076 (san1∆) and 3.33 ± 0.055 (ubr1∆).
The like results for IEKWTANLLPARQFGYV [RPS22A] were, in that order, 1.6 ± 0.075, 1.92 ± 0.088, 1.8 ± 0.15 and 2.14 ± 0.17.
Consider VPNYEVSEKAFLLTQSK [RPN7], for which the protein stability index was determined as 3.17 ± 0.18 (doa10∆), 3.47 ± 0.24 (pdr5∆) and 2.75 ± 0.14 (ubr1∆).
For the sequence SNININVNNNNIGQQQV [SWI1], the protein stability index (doa10∆) worked out at 2.64 ± 0.19, the protein stability index (pdr5∆) stood at 3.01 ± 0.2, the protein stability index (san1∆) came out at 3.07 ± 0.074 and the protein stability index (ubr1∆) was 3.13 ± 0.21.
FDEFMNVVIDEAVEIPV [SME1]: the protein stability index (doa10∆) was 2.86 ± 0.056, the protein stability index (pdr5∆) came to 3.19 ± 0.066, the protein stability index (san1∆) was determined as 2.94 ± 0.071 and the protein stability index (ubr1∆) is 2.9 ± 0.045.
As to KERYTVEDELTESIALS [RRI1], the protein stability index came to 3.1 ± 0.065 (doa10∆), 3.29 ± 0.052 (pdr5∆), 3.11 ± 0.075 (san1∆) and 3.23 ± 0.058 (ubr1∆).
Turning to IHNTKLPAYSGEIGDFF [POP1], the protein stability index (doa10∆) came out at 3.07 ± 0.06, the protein stability index (pdr5∆) turned out to be 3.1 ± 0.062, the protein stability index (san1∆) came to 3.1 ± 0.047 and the protein stability index (ubr1∆) came out at 3.02 ± 0.06.
On to TNYYLTTARNDLGVVFA [CSL4], for which the protein stability index runs as follows: (doa10∆) 2.04 ± 0.066; (pdr5∆) 2.39 ± 0.078; (san1∆) 2.51 ± 0.075; (ubr1∆) 2.82 ± 0.072.
On to VTNFNSTNEDQNNSKHT [SRB5], for which the protein stability index is 3.18 ± 0.16 (doa10∆), 2.44 ± 0.15 (pdr5∆), 3.06 ± 0.18 (san1∆) and 2.71 ± 0.076 (ubr1∆).
The corresponding values for LKFNSTEYRGTLVSTDN [SMX3] are 1.74 ± 0.04, 2.59 ± 0.049, 2.27 ± 0.067 and 2.25 ± 0.041.
The corresponding values for YDSRTTIFSPEGRLYQV [PRE9] are 3.02 ± 0.1, 3.31 ± 0.075, 2.97 ± 0.078 and 3.09 ± 0.063.
As for WDLVDERTKQRTAKAYL [PRP8], the protein stability index runs as follows: (doa10∆) 3.18 ± 0.12; (pdr5∆) 3.6 ± 0.23; (san1∆) 3.09 ± 0.074; (ubr1∆) 3.1 ± 0.1.
The corresponding values for CIIAVSCTLLERGHPKD [POP1] are 1.46 ± 0.022, 1.52 ± 0.029, 1.81 ± 0.036 and 1.96 ± 0.027.

Source of the values: the supplement of paper PMC9732359.
